Data from patent US6699834B1, “Method for treating cancer” (University of Maryland Biotechnology Institute, priority 1997, dated 2004).

B1: rβhCG: recombinant β subunit expressed in mouse cells (Sigma) (protein, UniProt P0DN86 21-165, looked up)
Choriogonadotropin subunit …: SKEPLRPRCRPINATLAVEKEGCPVCITVNTTICAGYCPTMTRVLQGVLPALPQVVCNYRDVRFESIRLPGCPRGVNPVVSYAVALSCQCALCRRSTTDCGGPKDHPLTCDDPRFQDSSSSKAPPPSLPSPSRLPGPSDTPILPQ
B2: βhCG: purified native β subunit of hCG (Sigma) (protein, UniProt P0DN86 21-165, looked up)
Choriogonadotropin subunit …: B1 Choriogonadotropin subunit …
modifications: native beta subunit only

What was measured:
HIV-1 = details: for HIV in vitro Inhibition: inhibition of HIV-1 replication in vitro (HIV-1 strains and HIV-1 primary isolates)
Text: To prepare HIV infected cells for the in vitro assay of hCG preparations and β-hCG peptides and derivatives, primary PBMCs, macrophages, and CD4^+ T cells isolated from peripheral blood and the H9 human T cell line, were acutely or chronically infected with 8 different HIV-1 strains: 4 cell line adapted viruses, namely the macrophage tropic Ba-L strain (Gartner et al., 1986, Science 233:215-219) and the CD4^+ T cell tropic MN, RF, and IIIB strains (10^5 TCID50/ml) (Popovic et al., 1984, Science […]; Gallo et al.; 1984, Science 224:500-503); 2 isolates, Ju1083 and G3, from Nigerian AIDS patients passed once in a CD4^+ T cell line (Sub-T1); and 2 primary (“clinical”) isolates from AIDS patients from Trinidad which were never passed in any cell line and were used at a titer of 7.5×10^4TCID50/ml. In all experiments; HIV1 (10^5 TCID50/ml) was added to the cells(10^6 cells/ml) for a 2 hour incubation after which the virus infected cells were washed with 10 ml phosphate buffered saline (PBS) three times to eliminate extra cellular virus. The test inhibitor, i.e. the hCG or β-hCG peptide preparation was then added and the cells were incubated with the test inhibiter for 9 to 10 days with serial sampling. Cultures were assayed for p24 antigen on days 3 to 10.
Peptides of the α- and β-subunits (0.05 to 50 nmoles/ml), native α chain preparation, and various crude preparations of the native hCG heterodimer (0.01 to 1,000 IU) and the native β-hCG subunit (100 to 1,000 μg) were tested for effects on HIV-1 replication in acutely infected cells-by measuring change in viral antigen levels in response to the above noted preparations (FIGS. 4A-D and Table 3).
The fractions were then tested for anti-HIV, anti-KS and pro-hematopoietic activities in vitro. To assay for inhibition of HIV-1 replication in vitro, the HIV-1 […] viral strain was used to infect PBMCs and PM-1 cells (derived from the HUT-78 T-cell lymphoma cell line) at 10^3 TCID50/ml as described in detail herein.

[1] = test system: HIV RNA and protein expression; assay: HIV RNA and protein expression in HIV-1 transgenic mice; format: in vivo; details: inhibition of HIV RNA and protein expression in HIV-1 transgenic mice
Text: (§1) The HIV-1 transgenic mice used for this study contain 7.4 kb of foreign DNA, including 5.1 kb of the HIV-1 proviral genome deleted in the gag and pol genes and 2.3 kb of vector (Dickie et al., 1991, Virology 185:109-119). […] In addition, these mice develop severe hyperkeratotic skin lesions with marked expression of gp 120 and nef genes (Kopp et al., 1993, AIDS Res. Hum. Retroviruses 9:267-275; Vasli et al., 1994, AIDS Res. Hum. Retroviruses 10:1241-1250).
Heterozygous transgenic mothers were treated with the hCG preparation subcutaneously twice weekly. Pups received hCG via the mother's milk.
Gene expression was assayed in total RNA extracted from the skin of Tg26 mice with RNAzol. One microgram of RNA was reverse transcribed into cDNA using random hexamer primers and […] reverse transcriptase (Life Technologies, MD) in a final volume of 30 μl. One tenth of the cDNA reactions were used for PCR amplification of various HIV gene sequences (env, tat, rev, nef and vif). In addition, glyceraldehyde 3-phosphate dehydrogenase (GAPHD) mRNA was amplified for each sample for normalization. […] Detection was performed by chemiluminescence (Amersham) and relative mRNA levels determined by densitometry after normalization with GAPDH mRNA levels. […]

KS Y-1 and KS-SLK cells = assay: Kaposi's Sarcoma clonogenic assay in cultured cells; format: cell-based, human; details: for KS in vitro: inhibition of Kaposi's Sarcoma cell growth in vitro in cultured cells
Experimental: Briefly, the KS Y-1 cells were obtained from mononuclear cells isolated from pleural effusion of an AIDS patient with KS in the lungs. After the depletion of T lymphocytes, monocytes/macrophages and fibroblasts using monoclonal antibodies against CD2, CD3, CD4, CD8, CD10 and CD14 membrane antigens and baby rabbit complement, the cells were cultured in the absence of exogenous growth factors to select for transformed cells. […] Clonogenic assays were performed by seeding the KS Y-1 or KS-SLK cells in methylcellulose (0.8%, v/v), incubating the cells for 10 days in the presence or absence of the hCC, β-hCG or β-hCG peptide preparations and then counting the number of well-formed colonies of triplicate wells formed after seeding with 5×10^4 cells.
To assay for activity against Kaposi's sarcoma cell growth in vitro, the clonogenic assay described herein was used with the KS Y-1 and KS-SLK cultured Kaposi's Sarcoma cell lines,.

[2] = test system: Kaposi's Sarcoma induced in mice; assay: Kaposi's Sarcoma tumors induced in mice by KS Y-1 cells; format: in vivo; details: inhibition of Kaposi's Sarcoma induced in mice
Experimental: The effects of the peptides on KS tumor cells were also evaluated in vivo in the KS mouse model. To induce KS tumors in the mice, 1×10^6/ml KS Y-1 cells in 50 μl PBS or saline were injected subcutaneously into immunodeficient mice (beige-XID-BNX mice). […] Methods for detection of apoptosis (from tissue biopsies) were used, as described in Lunardi-Iskandar et al.(1995, Nature 375:64-68). Briefly, the samples were stained in situ for the presence of cells with DNA fragmentation. Tissue slides from formalin-fixed tumors were treated with terminal deoxynucleotide transferase for extension of DNA ends (hydroxyl 3′) and incorporation of digoxigenin-11-dUTP according to the manufacturer's instructions (Oncor, Gaithersburg, Md.). Anti-digoxigenin antibody conjugated with the enzyme peroxidase allowed detection of apoptotic cells, which stain brown, whereas viable cells stain blue.
Certain fractions were tested for activity in reducing Kaposi's Sarcoma lesions in the Kaposi's Sarcoma mouse model as described herein. In this assay, starting one week after injection of the KS Y-1 cells to induce Kaposi's sarcoma formation, the mice were injected subcutaneously with 100 IU hCG. […] After one week of the week of treatment with the hCG fractions, the KS lesions were examined for cell apoptosis and regression as described herein. […]

[3] = test system: hematopoietic progenitor cells; assay: Hematopoietic progenitor clonogenic assays (CFU-GEMM, BFU-e, CFU-GM); format: cell-based, human; details: for Pro-hematopoiesis in vitro Enhancement: relative increase of hematopoietic colony cell number, hCG preparations 200 IU/ml, subunits and peptides 100 μg/ml
Experimental: The effect of hCG preparations and peptides was assayed on hematopoietic progenitor cells in vitro: Hematopoietic progenitor cells (2×10^5 cell/ml) were isolated from normal bone marrow and cord blood and seeded in methylcellulose. […] The hCG preparations were administered at 200 IU/ml and the β- and α-subunits and peptides were administered at 100 μg/ml. The native commercial preparation of hCG (APL™, Wyeth Ayerst) was pre-tested for anti-HIV and anti-KS activities. Aggregates containing more than 50 cells after 10 days of culture were counted as colonies.

HIV-1 transgenic mice = assay: Survival, growth and weight of HIV-1 transgenic mouse pups; format: in vivo; details: administered first 5 days after birth through mothers milk
Experimental: as §1
Finally, certain fractions were tested for their ability to increase survival, promote weight gain and reduce HIV-1 gene expression in HIV-1 transgenic mice as described herein.
HIV-I transgenic pups administered hCG and hCG-related preparations for the first 5 days after birth through the mothers milk were monitored for survival at 10 days after birth.

Row | Molecule | inhibition of HIV-1 infection/replication in vitro (in words) (HIV-1) | HIV in vitro Inhibition (HIV-1) | inhibition of HIV RNA and protein expression [1] | KS in vitro (KS Y-1 and KS-SLK cells) | KS in vivo [2] | Pro-hematopoiesis in vitro Enhancement [3] | survival at 10 days after birth (HIV-1 transgenic mice) | inhibition of KS cell growth in clonogenic assays (in words) (KS Y-1 and KS-SLK cells; KS Y-1 and KS SLK) | promotion of hematopoiesis (in words) ([3]; listed as native β-hCG) | promotion of hematopoiesis (in words) ([3]; listed as partially purified native β-chain)
1 | B1 | not to be active | − (“−” represents less than 10% effect) | − (“−” represents less than 10% effect) | − (“−” represents less than 10% effect) | − (“−” represents less than 10% effect) | − (“−” represents less than 10% effect) | failed to promote survival | – | – | –
2 | B2 | active | ++ (“++” represents greater than 40% effect) | ++ (“++” represents greater than 40% effect) | ++ (“++” represents greater than 40% effect) | ++ (“++” represents greater than 40% effect) | ++ (“++” represents greater than 40% effect) | promote survival | moderately well | pro-hematopoietic activity | directly promoted
